{"source": "patent US20260009052", "about": "“CAS12 PROTEINS AND USES THEREOF” (GUANGZHOU REFORGENE MEDICINE CO., LTD., published 2026)", "key": {"[1]": {"target": "T1, C12-279 Mut-02-1-426-846-858-860 (C12-279-V4) (synthetic construct, I1R,Q186R,D352R,D426R,846R,858R,L860R)", "T1 chain": "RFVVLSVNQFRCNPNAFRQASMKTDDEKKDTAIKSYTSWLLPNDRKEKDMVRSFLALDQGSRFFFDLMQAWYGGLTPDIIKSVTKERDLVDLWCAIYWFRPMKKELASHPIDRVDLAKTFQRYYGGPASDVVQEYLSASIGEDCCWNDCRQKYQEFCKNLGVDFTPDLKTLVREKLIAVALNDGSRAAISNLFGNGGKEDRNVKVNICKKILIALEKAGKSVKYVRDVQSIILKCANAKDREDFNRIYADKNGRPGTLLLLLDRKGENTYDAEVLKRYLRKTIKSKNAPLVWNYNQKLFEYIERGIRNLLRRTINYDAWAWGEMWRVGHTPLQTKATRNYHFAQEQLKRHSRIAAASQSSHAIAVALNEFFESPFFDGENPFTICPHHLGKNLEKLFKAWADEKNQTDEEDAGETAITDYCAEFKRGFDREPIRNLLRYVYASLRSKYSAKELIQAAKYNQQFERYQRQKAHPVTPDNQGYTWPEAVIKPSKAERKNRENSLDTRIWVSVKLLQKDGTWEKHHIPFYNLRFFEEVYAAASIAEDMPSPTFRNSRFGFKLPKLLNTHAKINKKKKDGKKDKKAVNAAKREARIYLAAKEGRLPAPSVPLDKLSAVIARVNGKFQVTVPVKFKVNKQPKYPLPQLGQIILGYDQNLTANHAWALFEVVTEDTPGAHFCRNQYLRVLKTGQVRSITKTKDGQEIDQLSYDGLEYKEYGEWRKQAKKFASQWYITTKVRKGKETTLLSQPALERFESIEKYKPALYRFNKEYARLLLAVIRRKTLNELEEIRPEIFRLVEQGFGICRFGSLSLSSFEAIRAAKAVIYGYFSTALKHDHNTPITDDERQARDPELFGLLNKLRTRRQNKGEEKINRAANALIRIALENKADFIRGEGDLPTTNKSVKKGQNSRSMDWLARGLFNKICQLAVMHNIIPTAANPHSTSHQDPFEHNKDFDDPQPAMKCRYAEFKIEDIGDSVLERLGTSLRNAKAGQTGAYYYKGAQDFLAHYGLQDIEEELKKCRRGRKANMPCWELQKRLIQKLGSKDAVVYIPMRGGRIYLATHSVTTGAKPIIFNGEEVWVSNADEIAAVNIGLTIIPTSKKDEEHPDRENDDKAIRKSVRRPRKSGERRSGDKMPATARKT", "assay": "cell_activity; PAM TTG; mutant PAM 5'-WTN-3' by Example 17"}, "C12-279 L260R": {"target": "T2, C12-279 L260R (synthetic construct, L260R)", "T2 chain": "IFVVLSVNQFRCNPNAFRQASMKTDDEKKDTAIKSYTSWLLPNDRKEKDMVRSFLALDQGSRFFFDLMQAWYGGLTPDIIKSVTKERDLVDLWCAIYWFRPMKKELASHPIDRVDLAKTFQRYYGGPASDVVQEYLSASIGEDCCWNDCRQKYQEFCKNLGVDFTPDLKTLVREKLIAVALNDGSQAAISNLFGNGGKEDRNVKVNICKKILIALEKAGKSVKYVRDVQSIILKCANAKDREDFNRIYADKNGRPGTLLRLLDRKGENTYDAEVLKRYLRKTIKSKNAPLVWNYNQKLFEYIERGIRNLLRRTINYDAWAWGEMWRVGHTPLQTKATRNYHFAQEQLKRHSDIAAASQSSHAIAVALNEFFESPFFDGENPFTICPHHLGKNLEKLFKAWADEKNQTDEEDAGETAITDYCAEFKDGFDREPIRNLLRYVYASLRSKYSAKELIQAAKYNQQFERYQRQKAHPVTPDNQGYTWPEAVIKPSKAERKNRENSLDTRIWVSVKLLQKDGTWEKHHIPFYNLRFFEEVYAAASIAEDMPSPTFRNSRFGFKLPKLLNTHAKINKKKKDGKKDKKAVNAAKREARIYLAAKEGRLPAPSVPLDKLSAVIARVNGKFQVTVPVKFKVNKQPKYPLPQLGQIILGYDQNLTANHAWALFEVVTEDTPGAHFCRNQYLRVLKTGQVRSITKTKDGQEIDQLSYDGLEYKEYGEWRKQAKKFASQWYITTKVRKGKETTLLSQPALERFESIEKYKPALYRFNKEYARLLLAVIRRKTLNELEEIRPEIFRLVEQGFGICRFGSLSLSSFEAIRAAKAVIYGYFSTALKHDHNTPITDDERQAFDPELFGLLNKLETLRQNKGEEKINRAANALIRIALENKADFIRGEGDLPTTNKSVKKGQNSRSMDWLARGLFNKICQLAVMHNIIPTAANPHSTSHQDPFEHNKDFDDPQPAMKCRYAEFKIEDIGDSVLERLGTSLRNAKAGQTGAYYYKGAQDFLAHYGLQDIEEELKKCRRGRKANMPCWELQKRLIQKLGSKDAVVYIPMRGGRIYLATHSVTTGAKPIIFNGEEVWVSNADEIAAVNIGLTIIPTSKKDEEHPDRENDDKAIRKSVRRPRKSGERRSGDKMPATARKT", "assay": "cell_activity; PAM TTG; +/-0.14", "method": "Transfection: transfection was performed 12-14 h after plating. 1.5 μL PEI (Yeasen Biotechnology, 40815ES03, Polyethylenimine Linear (PEI) MW25000) and 500 ng mutation clone plasmid were added to 100 μL Opti-MEM per well of the 24-well plate, mixed, and added to the NAAN cell line for cell transfection after placing at room temperature for 20 min. After overnight transfection, a fresh culture medium was replaced, and the culture was continued for 72 h, followed by flow cytometry. Editing efficiencies of different mutant clones were characterized by the proportion of GFP-positive cells.\nEditing efficiency of some selected mutants was tested in Reporter3 cell line using the same manner as described for the NAAN reporter system, except that the cell line was changed from NAAN cell line to Reporter3 cell line."}}, "data": [{"binder": "C12-279 Reporter3 sgRNA ; Reporter3 target (ssRNA ; dsDNA) RNA: GUAAUGCGUCUCCCAUUGACGCCUCACCUCGCGACGCAAUGAUG DNA 1: CTCACCTCGCGACGCAATGATG DNA 2: CATCATTGCGTCGCGAGGTGAG", "values": [{"measurement": "binding signal", "setting": "[1]", "value": "3.88 fold of C12-279"}, {"measurement": "binding signal", "setting": "C12-279 L260R", "value": "0.66 fold of C12-279"}]}]}
